Measurements as given in article PMC3197213 (Structure (London, England : 1993), 2011).

Molecular target: rat syntaxin-1A SNARE motif (residues 191-253) (rat, UniProt P32851 191-253)
Assay: NMR titration

Sequence of rat syntaxin-1A SNARE motif (residues 191-253) (P32851 191-253): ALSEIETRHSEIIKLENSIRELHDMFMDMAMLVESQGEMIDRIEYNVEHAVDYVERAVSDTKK

B1: Rat Munc13-1 MUN-CD module (1148-1407,EF,1453-1531 fragment) (domain or fragment)
chain: not shown
  Kd: > 300 µM
